From patent US20200277355A1 come the findings set out here.

Experiment [1] deals with TNF-α. Description: MST, fluorescently labelled TNF-α, TNFR1 titrated, without SN10.
For experiment [2], the target named is TNFR1. In words: MST, fluorescently labelled TNFR1, TNF-α titrated, without SN10.
Experiment [3] concerns the target TNFR2. In words: MST, fluorescently labelled TNFR2, TNF-α titrated, without SN10.
Experiment [4] concerns the target TNFR2. Description: MST competition, fluorescently labelled TNFR2, TNF-α titrated in the presence of 100 µM SN10.

The term Kd denotes the constant that tells how readily two partners part at equilibrium. A lower Kd goes with a tighter complex.

As for TNFR1 (receptor), the Kd in experiment [1] stood at 0.00284 µM.

In the case of TNF-α (ligand), the Kd in experiment [2] worked out at 0.116 µM; in experiment [3], 0.328 µM. For the same substance, the KD in the presence of 100µM SN10 in experiment [4] was 0.384 µM.
